Data: patent US20050245445A1 (BURNHAM INSTITUTE FOR MEDICAL RESEARCH, published 2005)
Where no end group is shown, it is not given here.

B1: fluorescein-conjugated RGR peptide (CRGRRST) (peptide)
peptide: CRGRRST
modifications: also: fluorescein-conjugated (site of attachment not given here)
notes: Synthetic linear peptide made by Fmoc chemistry and injected intravenously into RIP1-Tag2 mice; also called RGR-FITC; fluorescein-conjugated CRGRRST peptide

Tests used:
[1] = target: PDGFRβ overexpressed on transfected 293T cells; test: phage binding to transfected 293T cells, 2 hours at 4° C., bound phage counted by plaque assay
[2] = target: T1, PDGFRβ in RIP1-Tag2 mouse tumor tissue (mouse, UniProt P05622 32-1098); test: co-localization of i.v. injected peptide with anti-PDGFRβ immunostaining in RIP1-Tag2 tumor sections
T1 construct: whole, on cells; Endogenous receptor in tissue, seen only by immunostaining; also called PDGFRb (CD140b)
Experimental: For immunohistochemistry, frozen slides were pre-incubated with blocking buffer (1×PNB from NEN Biosciences) for one hour, washed several times in 1×PBS and incubated with the primary antibody of interest overnight at 4° C. The cell-specific antibodies used were rat monoclonal anti-mouse CD31 (1:200; BD Pharmingen), rat monoclonal anti-mouse MECA-32 (1:200; BD Pharmingen), rabbit polyclonal anti-mouse NG2 (1:200; Chemicon), and rat monoclonal anti-mouse PDGFRb (CD140b) (1:200; eBioscience). The corresponding secondary antibodies; Cy-3 donkey anti-rabbit IgG and Rhodamine Red donkey anti-rat IgG (Jackson ImmunoResearch), were used at a 1:200 dilution and incubated for one hour at room temperature. The following species-matched immunoglobulins were used as negative controls; rabbit IgG (Vector Laboratories) and rat IgG (Jackson ImmunoResearch) at a 1:200 dilution. The slides were washed several times in 1×PBS and mounted in Vectashield Mounting Medium with DAPI (Vector Laboratories). Hematoxylin and eosin (H&E) staining was performed for histological grading of adjacent sections by standard methods, and lesions were graded as previously described (Lopez and Hanahan, 2002).
In contrast, no binding above background was detected toward cells transfected with vascular endothelial growth factor receptor 2 (VEGFR2) (FIG. 5A).

T1 sequence (P05622 32-1098): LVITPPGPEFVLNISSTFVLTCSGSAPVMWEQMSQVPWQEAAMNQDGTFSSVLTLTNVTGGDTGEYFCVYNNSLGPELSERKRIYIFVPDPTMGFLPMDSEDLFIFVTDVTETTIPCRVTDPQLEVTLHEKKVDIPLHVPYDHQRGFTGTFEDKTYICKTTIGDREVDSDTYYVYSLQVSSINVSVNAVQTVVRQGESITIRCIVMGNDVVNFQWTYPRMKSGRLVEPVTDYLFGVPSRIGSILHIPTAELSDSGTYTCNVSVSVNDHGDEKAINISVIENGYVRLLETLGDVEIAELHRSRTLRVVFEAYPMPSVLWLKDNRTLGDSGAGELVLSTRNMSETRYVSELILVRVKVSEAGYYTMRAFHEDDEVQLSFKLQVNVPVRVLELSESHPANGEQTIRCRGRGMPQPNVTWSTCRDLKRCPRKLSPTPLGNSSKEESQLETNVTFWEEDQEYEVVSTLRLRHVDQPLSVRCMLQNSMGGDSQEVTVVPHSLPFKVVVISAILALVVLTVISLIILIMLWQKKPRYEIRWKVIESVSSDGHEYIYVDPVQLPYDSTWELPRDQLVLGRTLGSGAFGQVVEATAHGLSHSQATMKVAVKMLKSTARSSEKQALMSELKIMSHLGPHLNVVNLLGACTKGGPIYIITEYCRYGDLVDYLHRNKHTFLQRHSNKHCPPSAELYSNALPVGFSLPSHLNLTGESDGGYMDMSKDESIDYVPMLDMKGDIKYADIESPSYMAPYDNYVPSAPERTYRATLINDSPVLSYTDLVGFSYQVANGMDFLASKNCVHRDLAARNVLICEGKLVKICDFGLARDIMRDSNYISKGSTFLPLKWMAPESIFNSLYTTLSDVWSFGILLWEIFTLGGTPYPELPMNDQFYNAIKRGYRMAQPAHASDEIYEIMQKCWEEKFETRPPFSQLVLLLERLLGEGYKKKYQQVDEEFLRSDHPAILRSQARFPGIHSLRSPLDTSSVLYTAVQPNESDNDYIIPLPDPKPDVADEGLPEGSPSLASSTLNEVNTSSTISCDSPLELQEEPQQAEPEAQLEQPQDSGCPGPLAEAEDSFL

Row | Binder | fold binding to PDGFRβ-transfected cells over non-transfected cells [1] | binding result [2]
1 | CRGRRST [RGR phage (T7 phage displaying the RGR peptide CRGRRST)] | 20 fold | 
2 | B1 |  | binds
